One block for each molecule: values may come before it.
Columns and labels:
[1] = target: AR-AR27Linker (mouse) (UniProt P19091); experiment: fluorescence polarization; conditions: 150 mM NaCl, 40 mM Tris pH 8.0, 1 mM TCEP, 20 uM DHT, 10% glycerol, 0.01% NP40, on ice; FP 100 nM DNA, 0-4 uM protein; EMSA 50 nM DNA, 250 nM protein
[2] = target: AR-AR18Linker (mouse) (UniProt P19091); experiment: fluorescence polarization; conditions: 150 mM NaCl, 40 mM Tris pH 8.0, 1 mM TCEP, 20 uM DHT, 10% glycerol, 0.01% NP40, on ice; FP 100 nM DNA, 0-4 uM protein; EMSA 50 nM DNA, 250 nM protein
[3] = target: Recombinant mouse AR lacking the N-terminus (mouse); experiment: cryo-EM structure; Grafix cross-linked complex of ΔNTD AR, DHT, ARE35 DNA and ERG (fraction 11); three states (Entrenched, Splayed, Divorced) at 11.4, 9.1 and 9.4 Å; LBD and DBD X-ray coordinates docked
[4] = target: AR deltaNTD WT;ERG full-length (mouse;human, UniProt P19091;P11308-1 530-899;1-462, |); experiment: cryo-EM (9.1-11.4 A); DHT; GraFix cross-linked; AR dimer; EMD-25132, EMD-25133, EMD-25134; 150 mM NaCl, 40 mM Tris pH 8.0, 1 mM TCEP, 20 uM DHT, 10% glycerol, 0.01% NP40, on ice; FP 100 nM DNA, 0-4 uM protein; EMSA 50 nM DNA, 250 nM protein; conditions: protein: recombinant;recombinant, tags: Smt3 fusion, removed by Ulp1;Smt3 fusion, chain copies: 2;1, label: unlabeled, blunt
[5] = target: AR deltaNTD WT (mouse, UniProt P19091 530-899); experiment: fluorescence polarization; DHT; 150 mM NaCl, 40 mM Tris pH 8.0, 1 mM TCEP, 20 uM DHT, 10% glycerol, 0.01% NP40, on ice; FP 100 nM DNA, 0-4 uM protein; EMSA 50 nM DNA, 250 nM protein; conditions: protein: recombinant; tags: Smt3 fusion, removed by Ulp1; chain copies: 2; label: 5' fluorescein (FP); unlabeled (EMSA); blunt
Sequence of AR deltaNTD WT (P19091 530-899, stated change not applied): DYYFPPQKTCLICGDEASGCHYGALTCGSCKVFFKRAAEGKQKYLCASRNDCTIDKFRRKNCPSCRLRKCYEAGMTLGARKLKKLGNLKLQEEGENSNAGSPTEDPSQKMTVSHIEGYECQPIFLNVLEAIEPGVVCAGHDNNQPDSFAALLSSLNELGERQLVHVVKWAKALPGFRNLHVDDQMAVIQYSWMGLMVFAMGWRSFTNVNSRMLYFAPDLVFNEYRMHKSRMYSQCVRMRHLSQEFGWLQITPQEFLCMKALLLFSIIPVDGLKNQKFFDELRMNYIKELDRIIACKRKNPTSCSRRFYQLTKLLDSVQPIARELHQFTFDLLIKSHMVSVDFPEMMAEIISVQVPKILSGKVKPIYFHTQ

Sequence of AR deltaNTD WT;ERG full-length (P19091 530-899, stated change not applied, chain 1 of 2): as the sequence (P19091 530-899, stated change not applied) above
Sequence of AR deltaNTD WT;ERG full-length (P11308 other isoform, or with tags, fused parts or gaps | | mutant, chain 2 of 2): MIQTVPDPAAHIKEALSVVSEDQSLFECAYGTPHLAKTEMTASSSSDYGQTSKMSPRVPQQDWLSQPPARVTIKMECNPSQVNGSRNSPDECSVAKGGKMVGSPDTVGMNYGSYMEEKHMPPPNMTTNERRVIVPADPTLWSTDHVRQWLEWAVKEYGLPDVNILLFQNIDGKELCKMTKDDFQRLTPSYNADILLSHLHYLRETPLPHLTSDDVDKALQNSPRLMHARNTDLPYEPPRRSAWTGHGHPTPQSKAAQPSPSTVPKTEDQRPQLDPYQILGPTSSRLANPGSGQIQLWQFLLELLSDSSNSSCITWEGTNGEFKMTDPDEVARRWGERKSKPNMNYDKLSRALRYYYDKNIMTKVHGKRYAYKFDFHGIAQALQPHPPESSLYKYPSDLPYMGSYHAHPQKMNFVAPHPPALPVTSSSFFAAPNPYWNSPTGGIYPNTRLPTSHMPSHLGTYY
Sequence of AR-AR18Linker (mouse) (P19091 whole entry, the tested form may be a part): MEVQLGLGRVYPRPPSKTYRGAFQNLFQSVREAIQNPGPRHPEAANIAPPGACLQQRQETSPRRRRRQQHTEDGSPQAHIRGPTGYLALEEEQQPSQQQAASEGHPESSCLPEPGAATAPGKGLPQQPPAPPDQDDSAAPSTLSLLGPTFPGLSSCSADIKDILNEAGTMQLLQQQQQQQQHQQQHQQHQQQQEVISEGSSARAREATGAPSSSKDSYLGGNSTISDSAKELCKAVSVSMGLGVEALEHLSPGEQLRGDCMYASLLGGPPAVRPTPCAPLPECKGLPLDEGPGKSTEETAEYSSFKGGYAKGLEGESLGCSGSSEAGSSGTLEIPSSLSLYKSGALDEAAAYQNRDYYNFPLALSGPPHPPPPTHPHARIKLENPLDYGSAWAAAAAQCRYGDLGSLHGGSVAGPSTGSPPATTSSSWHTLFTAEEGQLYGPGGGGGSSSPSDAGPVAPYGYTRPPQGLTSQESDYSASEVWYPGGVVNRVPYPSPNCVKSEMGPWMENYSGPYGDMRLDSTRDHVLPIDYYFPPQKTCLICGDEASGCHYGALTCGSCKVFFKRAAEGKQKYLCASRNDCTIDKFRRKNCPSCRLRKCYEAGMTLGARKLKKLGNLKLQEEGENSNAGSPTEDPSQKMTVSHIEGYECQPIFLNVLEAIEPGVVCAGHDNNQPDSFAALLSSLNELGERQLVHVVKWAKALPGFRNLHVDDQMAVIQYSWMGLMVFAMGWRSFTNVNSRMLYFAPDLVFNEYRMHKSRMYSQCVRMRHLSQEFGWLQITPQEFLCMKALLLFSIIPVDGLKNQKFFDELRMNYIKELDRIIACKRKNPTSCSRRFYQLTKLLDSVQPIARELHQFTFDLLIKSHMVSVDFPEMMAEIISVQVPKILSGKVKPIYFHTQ
Sequence of AR-AR27Linker (mouse) (P19091 whole entry): as the sequence (P19091 whole entry, the tested form may be a part) above

Molecule: TACCTAGCGTGGCCAGAACATCATGTTCTCCGGTGCGATCCAG (double strand) [ARE/Scr (ARE43)]
binding signal (fold weaker than WT AR) [1]: 3 | binding signal (fold tighter than WT AR) [2]: 5

stoichiometry N [3]: 2
Molecule: Recombinant mouse AR lacking the N-terminus (domain or fragment)

B1: ARE35 (dsDNA)
DNA 1: TAGCGTGGCCAGAACATCATGTTCTCCGGTGCGAT
DNA 2: ATCGCACCGGAGAACATGATGTTCTGGCCACGCTA
binding result [4]: binds

B2: ARE/Scr (ARE43) (dsDNA)
DNA 1: TACCTAGCGTGGCCAGAACATCATGTTCTCCGGTGCGATCCAG
DNA 2: CTGGATCGCACCGGAGAACATGATGTTCTGGCCACGCTAGGTA
binding result [5]: binds

Source: publication PMC9177810, “Allosteric interactions prime androgen receptor dimerization and activation”
